Data published in PMC10585004.

Biological target: Bovine Thyroglobulin (Sigma-T1001) (bovine) (UniProt P01267)
Assay: SAXS; XFEL small-angle scattering, liquid jet (GDVN) with reservoir delivery, thyroglobulin 0.7 mg/ml in PBS; experimental form factor compared with the profile computed (CRYSOL) from the cryo-EM dimer model

stoichiometry N: 2
Substance: Bovine Thyroglobulin (Sigma-T1001), P01267 20-2769
